Measurements published in the nanobody polyreactivity screen of Harvey et al. (2022).

test: yeast display, Sf9 membrane polyspecificity reagent, FACS + sequencing; frameworks hold sequencing errors
Procedure, shortened: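 After 36–48 hours of galactose induction, yeast (Saccharomyces cerevisiae BJ5465) displaying a synthetic nanobody library were stained at 4 °C for 1 hour with 10% biotinylated, detergent-solubilized Sf9 membrane reagent. Streptavidin microbeads enriched the stained cells before FACS sorting into low and high (top ~1%) gates on anti-HA and streptavidin fluorescence. Each clone's polyreactivity label reflects its gate of origin.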

Row | Sequence | polyreactivity (PSR sort gate)
1 | QVQIVESGGGLVQAGGSLRLSCAASVRTQRYYDMGCYRQAPVKERELVAAISSGGSTYYGDSLKGRFSISRDNAKNTVYLEMNSLKPEDTEVYYCAKRVSNWVSGGGYYYWGQCTQVTVSS | high polyreactivity
2 | QVQIVESGGGLVQAGGSLRLSCAAYGSIFVRNVMGWYRQAPGKERELVATIRYRGGSTYYADSVKGRFTISRDNAKNTVYLQMNSLKPEDTAVYYCNARYLWADEYYYWGQGTQVTVSS | low polyreactivity
3 | QVQIVESGGGLVQAGGSLRLSCAPSGSTFGSNAMGWYRQAPGKERELVAAIRWSGGSTYYADSVKGRFTISRDNAKNTVYLQMNSLKPEDTAVYYCNAVYGRQYRGYNYKYYYWGQGTQVTVSS | high polyreactivity
4 | QVQIVESGGGLVQAGGSLRLSCGASGRIFYNYALGWYRQAPGKERELVAAISGSGGSTYYADSVKGRFTISRDNAKNTVYLQMNSLKPEDTAVYYCSTSGPQYYSRNFDYWGQGTQVTVSS | low polyreactivity
5 | QVQIVESGGGLVQAGGSLRLSSAASGITFRHYAMGWYRQAPGKERELVAAITSRGGSTYYADSVKGRFTISRDNAKNTVYLQMNSLKPEDTAVYYCAKGTVHSRPDFGRGWYRWDDYWGQGSQVTVSS | high polyreactivity
6 | QVQIVESGGGLVQAGGSLRLSSASSGRTLRQYAMGWYRPAHWKERDLVAAIRTNGGRTYYADSVMRRFTISRVNSKNTVYLQMNSLKPEDTAVYYCAVYAVVLGVLFDYWGQGTQVTVSS | high polyreactivity
7 | QVQIVESGGGLVQAGGSLRLTCAASGGIFARYTMGWYRQAPGKERELVATITSGGGTNYADSVKGRFTISRDNAKNTVYLQMISLKPEDTAVYYCAASPRAVSYGPDDRQQYDYWGQGSQVTVSS | low polyreactivity
8 | QVQIVESGGGLVQAGGSLRVSCAASGITFGNYDMGWYRQAPGKERELVAAITGSGGRTYYADSVKGRFTISRDNEKNTVYLQMNSLKPEDTAVYYCNRRQYGRKKQYDYWGQGTQVTVSS | high polyreactivity
9 | QVQIVESGGGLVQAGGSLSLSCAASGRTISWYTMGWYRQAPGKERELVAGISSSGGSTYYADSVKGRFTISRDNAKNTVYLQLNSLKPEDTADYFCAAGDFRYVDRYGDMEYWGQGTQVTVSS | low polyreactivity
10 | QVQIVESGGGLVQAGGSLSLTCAASGSIITSNDMGWYRQAPGKERELVAAISKSGGRTYYAYSVKGRFTISRENEKNTDYLQMNCLKQEYTAVYYCHAGIYGYGYNPSYDYWGQGTQVTLSS | high polyreactivity
11 | QVQIVESGGGLVQARGSLRLSCAAYGRIIYRYAMGWYRQAPGKERELVAAISASGRTYYADSVKGRFTISRDNAKNTVYLQMNSLKPADTAVYYCAKVAAGSLGSWGQGTQVTVSS | high polyreactivity
12 | QVQIVESGGGLVQAVGSLRLSCAASGFIFMANAMGWYRQAPGKERELVAAITTGGRTNYADSVKGRFTISRDNAKNTVYLQMNSLKPEDTAVYYCAARYINGWVRSFYYWGQGTQVNVSS | high polyreactivity
13 | QVQIVESGGGLVQAVGSLRLSCAASGRIFHYNSMRWYRQAPGKERELVAAITDSTGGSTYYADSVKGRFTISRDNAKNTVYLQMNSLKPEDTAVYYFAAQDYQYSDYQWWFGYWGQGTKVTVSS | low polyreactivity
14 | QVQIVESGGRIVQAGGSLRLSCAASGSTFGWYTMGWYRQSPGKESELVATISWRGGTTYYADSVKGRFTISRDNAKNTVYLQMNSLKPEDTAVYYCAARRYRASSRGYGYWGQGTQVTVSS | high polyreactivity
15 | QVQIVESGGVLDQAGGSLRLSCAATGSTFAKNAMGWYRQAPGKERELVAAITSGGSTYYADSVKGRFTISRDNAKNTVYLQMYSLKPEDTAVYYCAVDYPWDIFIYWVQNYDHWGHGTQVTVSS | high polyreactivity
16 | QVQIVESGGVLVQAGGSLRLSCAASGFNYTNYAMGWYIQSPGKERELVAAITYSGGSKYYADSVKGRFTISRDIAKNTVYLQMNSLKPEDTAVFFCNKYPSFYGAGYYWGQGTQVTVSS | high polyreactivity
